Experimental data as given in paper PMC9334217.

What was measured:
[1] = system: CCn1c(=NN=c2sc3cc(S(=O)(=O)O)ccc3n2CC)sc2cc(S(=O)(=O)O)ccc21; assay: purified protein; details: 1.5 mM H2O2, 100 mM sodium acetate, pH 4.3, 25 °C, variant 29E4
[2] = molecular target: PpDyP variant 6E10 (E188K/A142V/H125Y) (Pseudomonas putida MET94); assay: crystal structure

With “PpDyP (Pseudomonas putida KT2440; E188K/H125Y)” the Km [1] was 810 ± 190 µM.
“PpDyP variant 6E10 (E188K/A142V/H125Y) (enzyme)” was tested, and the stoichiometry N [2] was 4.
